Data reported in PMC8125178, “Fluorescence Correlation Spectroscopy Analysis of Effect of Molecular Crowding on Self-Assembly of β-Annulus Peptide into Artificial Viral Capsid” (International Journal of Molecular Sciences, 2021).

Legend:
BODIPY-β-annulus peptide [1] = target: T1, BODIPY-β-annulus peptide (tomato bushy stunt virus, BODIPY-maleimide added by Michael addition to the thiol of the N-terminal Cys); test: fluorescence correlation spectroscopy (FCS); 0.1 μM BODIPY-β-annulus peptide with 0~200 μM β-annulus peptide in 10 mM Tris-HCl buffer (pH 7.0), sonicated 10 min, incubated 30 min, 25 °C; ratio of the slow component fitted to the Hill equation; apparent Kd; settings: both partners purified
T1 construct: also called BODIPY-labelled β-annulus peptide; fluorescent-labelled β-annulus peptide; source: synthetic peptide (solid-phase Fmoc chemistry; labelled with BODIPY-maleimide; purified by reversed-phase HPLC)
T1 peptide: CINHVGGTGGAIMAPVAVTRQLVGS

BODIPY-β-annulus peptide [2] = target: T1, BODIPY-β-annulus peptide; test: as above; settings: both partners purified
BODIPY-β-annulus peptide [3] = target: T1, BODIPY-β-annulus peptide; test: fluorescence correlation spectroscopy (FCS); 0.1 μM BODIPY-β-annulus peptide with 0~200 μM β-annulus peptide in 10 mM Tris-HCl buffer (pH 7.0) with 10 wt% PEG2000, 25 °C; ratio of the slow component fitted to the Hill equation; settings: both partners purified
BODIPY-β-annulus peptide [4] = target: T1, BODIPY-β-annulus peptide; test: fluorescence correlation spectroscopy (FCS); 0.1 μM BODIPY-β-annulus peptide with 0~200 μM β-annulus peptide in 10 mM Tris-HCl buffer (pH 7.0) with 5 wt% PEG2000, 25 °C; ratio of the slow component fitted to the Hill equation; settings: both partners purified
BODIPY-β-annulus peptide [5] = target: T1, BODIPY-β-annulus peptide; test: fluorescence correlation spectroscopy (FCS); 0.1 μM BODIPY-β-annulus peptide with 0~200 μM β-annulus peptide in 10 mM Tris-HCl buffer (pH 7.0) with 20 wt% PEG2000, 25 °C; ratio of the slow component fitted to the Hill equation; settings: both partners purified
[6] = target: the molecule itself; test: fluorescence correlation spectroscopy (FCS); 0.1 μM BODIPY-β-annulus peptide with 0~200 μM β-annulus peptide in 10 mM Tris-HCl buffer (pH 7.0) with 5 wt% PEG2000, 25 °C; ratio of the slow component fitted to the Hill equation
BODIPY-β-annulus peptide [7] = target: T1, BODIPY-β-annulus peptide; test: as above; settings: both partners purified
BODIPY-β-annulus peptide [8] = target: T1, BODIPY-β-annulus peptide; test: fluorescence correlation spectroscopy (FCS); 0.1 μM BODIPY-β-annulus peptide with 0~200 μM β-annulus peptide in 10 mM Tris-HCl buffer (pH 7.0) with 15 wt% PEG2000, 25 °C; ratio of the slow component fitted to the Hill equation; settings: both partners purified

B1: 24-mer β-annulus peptide from tomato bushy stunt virus (peptide)
peptide: INHVGGTGGAIMAPVAVTRQLVGS
notes: also called unmodified β-annulus peptide; source: synthetic peptide (solid-phase Fmoc chemistry, purified by reversed-phase HPLC)
- Kd (BODIPY-β-annulus peptide [1]): 45.2 ± 10.6 µM
- ratio of the slow component at 200 μM β-annulus (BODIPY-β-annulus peptide [2]): 62%
- Kd (BODIPY-β-annulus peptide [3]): 6.69 ± 3.25 µM
- Kd (BODIPY-β-annulus peptide [4]): 14.4 ± 7.81 µM
- Kd (BODIPY-β-annulus peptide [5]): 5.66 ± 2.15 µM
- binding result [6]: binds
- ratio of the slow component at 200 μM β-annulus (BODIPY-β-annulus peptide [7]): 76%
- Kd (BODIPY-β-annulus peptide [8]): 4.24 ± 3.22 µM
